Data taken from publication PMC9799976.

How the values were obtained:
[1] = target: full-length human dynein complex (heavy chain with SNAP-tag, IC, LIC, Tctex, LC8, Robl) (human) (UniProt Q14204); experiment: single-molecule TIRF microscopy; DDJ complexes assembled with equal amounts of dynein labeled with TMR and Alexa 647, without N-DCX; two-colour colocalisation of moving molecules
[2] = target: fluorescently labelled, biotinylated, taxol-stabilised microtubules for the TIRF assays; experiment: single-molecule TIRF microscopy; TIRF landing assay: MTs immobilised on the coverslip, GFP-tagged single-head dynein in motility buffer, 2 mM ATP, without DCX; set-up: landing rate on MTs: unit not given here
fluorescently labelled, biotinylated, taxol-stabilised microtubules for the TIRF assays, sequence (chain, as listed by the source, chain 1 of 2): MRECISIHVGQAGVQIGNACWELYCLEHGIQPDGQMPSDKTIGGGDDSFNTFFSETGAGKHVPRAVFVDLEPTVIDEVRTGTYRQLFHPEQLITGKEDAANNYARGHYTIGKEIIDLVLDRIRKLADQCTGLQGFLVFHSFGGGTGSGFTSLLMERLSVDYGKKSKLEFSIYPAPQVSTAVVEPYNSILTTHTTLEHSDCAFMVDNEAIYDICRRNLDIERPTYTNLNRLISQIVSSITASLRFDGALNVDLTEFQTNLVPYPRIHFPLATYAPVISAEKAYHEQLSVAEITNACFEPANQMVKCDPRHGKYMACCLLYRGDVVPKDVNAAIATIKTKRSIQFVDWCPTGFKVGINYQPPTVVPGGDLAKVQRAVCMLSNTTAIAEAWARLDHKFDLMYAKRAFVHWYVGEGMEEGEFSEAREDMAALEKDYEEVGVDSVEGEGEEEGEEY
fluorescently labelled, biotinylated, taxol-stabilised microtubules for the TIRF assays, sequence (chain, as listed by the source, chain 2 of 2): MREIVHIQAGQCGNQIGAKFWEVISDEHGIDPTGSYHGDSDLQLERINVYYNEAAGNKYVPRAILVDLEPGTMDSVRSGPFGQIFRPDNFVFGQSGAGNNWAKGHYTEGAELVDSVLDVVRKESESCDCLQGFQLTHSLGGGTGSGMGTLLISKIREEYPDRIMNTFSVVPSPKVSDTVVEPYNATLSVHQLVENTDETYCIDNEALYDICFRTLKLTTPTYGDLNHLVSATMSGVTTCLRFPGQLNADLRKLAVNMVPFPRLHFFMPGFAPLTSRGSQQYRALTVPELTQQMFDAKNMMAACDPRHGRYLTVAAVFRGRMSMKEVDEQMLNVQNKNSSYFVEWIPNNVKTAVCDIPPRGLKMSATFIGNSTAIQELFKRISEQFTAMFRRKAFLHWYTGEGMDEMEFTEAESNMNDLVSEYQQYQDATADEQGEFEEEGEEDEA

[3] = target: fluorescently labelled, biotinylated, taxol-stabilised microtubules for the TIRF assays; experiment: single-molecule TIRF microscopy; TIRF landing assay: MTs immobilised on the coverslip, GFP-tagged single-head dynein in motility buffer, 2 mM AMPPNP, without DCX; set-up: landing rate on MTs: unit not given here
[4] = target: fluorescently labelled, biotinylated, taxol-stabilised microtubules for the TIRF assays; experiment: single-molecule TIRF microscopy; TIRF landing assay: MTs immobilised on the coverslip, GFP-tagged single-head dynein in motility buffer, 2 mM ADP and 0.05 U/µl hexokinase, without DCX; set-up: landing rate on MTs: unit not given here
[5] = target: fluorescently labelled, biotinylated, taxol-stabilised microtubules for the TIRF assays; experiment: single-molecule TIRF microscopy; TIRF landing assay: MTs immobilised on the coverslip, GFP-tagged single-head dynein in motility buffer, 2 mM AMPPNP, with DCX; set-up: landing rate on MTs: unit not given here
[6] = target: fluorescently labelled, biotinylated, taxol-stabilised microtubules for the TIRF assays
[7] = target: fluorescently labelled, biotinylated, taxol-stabilised microtubules for the TIRF assays; experiment: single-molecule TIRF microscopy; TIRF landing assay: MTs immobilised on the coverslip, GFP-tagged single-head dynein in motility buffer, 2 mM ADP and 0.05 U/µl hexokinase, with DCX; set-up: landing rate on MTs: unit not given here
[8] = target: fluorescently labelled, biotinylated, taxol-stabilised microtubules for the TIRF assays; experiment: single-molecule TIRF microscopy; TIRF landing assay: MTs immobilised on the coverslip, GFP-tagged single-head dynein in motility buffer, 2 mM ATP, with DCX; set-up: landing rate on MTs: unit not given here

fraction of colocalization of two differently labeled dyneins in moving DDJ complexes [1] [%]	dwell time on MTs (median) [2] [s]	landing rate on MTs [2]	dwell time on MTs (median) [3] [s]	landing rate on MTs [3]	dwell time on MTs (median) [4] [s]	landing rate on MTs [4]	dwell time on MTs (median) [5] [s]	landing rate on MTs [5]	velocity of MT gliding powered by surface-bound single-headed dynein with 10 nM DCX (without DCX: 0.59 [0.56, 0.63] µm/s) [6] [µm/s]	dwell time on MTs (median) [7] [s]	landing rate on MTs [7]	dwell time on MTs (median) [8] [s]	landing rate on MTs [8]	Substance
42	–	–	–	–	–	–	–	–	–	–	–	–	–	full-length human dynein complex (heavy chain with SNAP-tag, IC, LIC, Tctex, LC8, Robl) (from UniProt Q14204 1-4646; Q13409 1-638; O43237 1-492; P63172 1-113; P63167 1-89; Q9NP97 1-96)
–	1	1.6	1.1	2.1	1.4	2.1	1.2	1.1	0.55	1.3	1.6	1.1	1.4	tail-truncated single-headed human dynein (amino acids 1320-4646 of DYNC1H1), N-terminal GFP, Q14204 1320-4646
